Reference: patent US12344663B2, “Anti-C3 antibodies and antigen-binding fragments thereof and their uses for treating eye or ocular diseases” (CDR-Life AG, priority 2021, dated 2025)
Read-outs that look alike come from different tables or passages of the source.

What was measured:
Classical Pathway = assay: WEISLAB Complement system Screen, classical pathway MAC (C5b-C9) formation; format: biochemical, human; details: human serum; read-out: IC50 (nM) Classical Pathway MAC deposition
Method: (§1) To identify antibodies that block all 3 complement pathways, antibodies are screened using an enzyme immunoassay for the qualitative determination of functional classical, lectin and alternative complement pathways in human serum using the WEISLAB® Complement system Screen (Svar Life Science AB, Malmö, Sweden).
(§2) To monitor inhibition of the complement system in human serum, the scFv of the invention or the comparator molecules are tested using an enzyme immunoassay for the qualitative determination of functional classical, lectin and alternative complement pathways in human serum using the WEISLAB® Complement system Screen (Svar Life Science AB, Malmö, Sweden), following the supplier's instructions. The amount of C5b-C9 neoantigen generated is proportional to the functional activity of complement pathways. The scFv of the invention and the comparator molecules are tested in a concentration response curve and the IC50 for the inhibition is calculated using the GraphPadPrism software and a non-linear, 4 parameters curve regression.

Lectin Pathway = assay: WEISLAB Complement system Screen, lectin pathway MAC (C5b-C9) formation; format: biochemical, human; details: human serum; read-out: IC50 (nM) Lectin Pathway MAC deposition
Method: as §1, §2

Alternative Pathway = assay: WEISLAB Complement system Screen, alternative pathway MAC (C5b-C9) formation; format: biochemical, human; details: human serum; read-out: IC50 (nM) Alternative Pathway MAC deposition
Method: as §1, §2

human C3 = human C3 (Homo sapiens, UniProt P01024); assay: SPR (Biacore T100) binding to human C3; details: for kd C3: off-rate; for ka C3: on-rate
Method: (§3) The kinetic parameters of the candidates are determined using a surface plasmon resonance (SPR) and Biacore T100 device. C3 and different variants thereof (Table 19) are immobilized as a ligand on a HC30M SPR sensor chip (XanTec bionanalytics, Germany) using EDC/[…] linking chemistry. Five increasing concentrations of each molecule (analyte) are consecutively injected using the single cycle kinetics (SCK) mode to determine the kinetic parameters. Regeneration between the candidates is done with 10 mM glycine*HCl, 2 M NaCl, pH 3.5. The data is fitted to a 1:1 Langmuir binding model and the kinetic parameters of on-rate (ka), off-rate (kd), and affinity […] were determined.

human C3b = target: T1, human C3b (Homo sapiens, UniProt P01024); assay: SPR (Biacore T100) binding to human C3b; details: for kd C3b: off-rate; for ka C3b: on-rate
T1 construct: C3b is derived from native C3 and is the larger of two elements formed by the cleavage of C3
Method: as §3

cyno C3 = assay: SPR (Biacore T100) binding to cyno C3; set-up: species or system cynomolgus (Macaca fascicularis); details: for Kd: Table 20, SPR; for kd cyno C3: off-rate; for ka cyno C3: on-rate
Method: as §3

[1] = target: T2, recombinant C3 (wild-type human C3) (Homo sapiens, UniProt P01024); assay: SPR (Biacore T100) binding to recombinant C3; details: for Kd: Table 20, SPR; for kd recombinant C3: off-rate; for ka recombinant C3: on-rate
T2 construct: 6×His (N); made in house; host or cells: CHO (ExpiFectamine CHO Expression Kit)
Method: as §3
(§4) Proteins are expressed with N-terminal 6×His tag and purified using a HisTrap Excel HP column (GE Healthcare), followed by a size-exclusion chromatography step (SUPERDEX®20010/300GL; GE Healthcare).

human C3 P314L = target: T3, human C3 P314L (Homo sapiens, UniProt P01024, P314L); assay: SPR (Biacore T100) binding to C3 SNP1 P314L; details: for Kd: Table 20, SPR; for kd C3 SNP1 P314L: off-rate; for ka C3 SNP1 P314L: on-rate
T3 construct: 6×His (N); made in house; host or cells: CHO (ExpiFectamine CHO Expression Kit)
Method: as §3
Single nucleotide polymorphism (SNP) in C3 has been observed across the population and certain SNPs were identified in genome-wide association studies (GWAS) to correlate with an increased risk to develop AMD. […] Very rare variants, which occur in less that 2.5% of the population include K155Q, R735W, S1619W, K65Q and R161W.
as §4

human C3 R102G = target: T4, human C3 R102G (Homo sapiens, UniProt P01024, R102G); assay: SPR (Biacore T100) binding to C3 SNP2 R102G; details: for Kd: Table 20, SPR; for kd C3 SNP2 R102G: off-rate; for ka C3 SNP2 R102G: on-rate
T4 construct: 6×His (N); made in house; host or cells: CHO (ExpiFectamine CHO Expression Kit)
Method: as §3
Single nucleotide polymorphism (SNP) in C3 has been observed across the population and certain SNPs were identified in genome-wide association studies (GWAS) to correlate with an increased risk to develop AMD. Common SNP variants include P314L, which occurs in approximately 23.3% of population, and R102G, which has been reported to occur in approximately 26-29% of population. Very rare variants, which occur in less that 2.5% of the population include K155Q, R735W, S1619W, K65Q and R161W.
The inventors therefore measured the binding affinity of the scFv of the invention to the most commonly occurring C3 forms, i.e., R102G and P314L. Wild-type human C3, human C3 P314L and human C3 R102G are expressed in the CHO cell line using the ExpiFectamine CHO Expression Kit (Thermo Fisher Scientific). Proteins are expressed with N-terminal 6×His tag and purified using a HisTrap Excel HP column (GE Healthcare), followed by a size-exclusion chromatography step (SUPERDEX®20010/300GL; GE Healthcare).

[2] = Storage stability at 150 mg/ml, chemical degradation by IEX-HPLC; format: physicochemical; details: for Starting charge purity (IEX-HPLC): before storage; for Storage stability, IEX 4 weeks at 25° C. [D %] / Storage stability, IEX 4 weeks at 40° C. [D %]: decrease versus start
Method: Clone I, clone II and clone III are tested for storage stability. Samples are concentrated to 150 mg/ml (Vivaspin20 centrifugal device, 5 kDa MWCO at 3800×g) and stored at 25° C. and 40° C. for up to 4 weeks. Samples are analyzed for oligomerization (SE-HPLC) and chemical degradation (IEX-HPLC). The starting monomeric purity as determined by SE-HPLC was 99.96% for each clone. The starting charge purity, as determined by IEX-HPLC was 98.07%, 97.16% and 96.76%, respectively for clone I, II and III.

[3] = Table 19, SPR, read-out: Affinity human C3
[4] = Table 20, SPR, read-out: KD (nM) C3
[5] = Table 19, SPR, read-out: Affinity human C3b
[6] = Table 20, SPR, read-out: KD (nM) C3b

T3 sequence (P01024 23-1663 P314L): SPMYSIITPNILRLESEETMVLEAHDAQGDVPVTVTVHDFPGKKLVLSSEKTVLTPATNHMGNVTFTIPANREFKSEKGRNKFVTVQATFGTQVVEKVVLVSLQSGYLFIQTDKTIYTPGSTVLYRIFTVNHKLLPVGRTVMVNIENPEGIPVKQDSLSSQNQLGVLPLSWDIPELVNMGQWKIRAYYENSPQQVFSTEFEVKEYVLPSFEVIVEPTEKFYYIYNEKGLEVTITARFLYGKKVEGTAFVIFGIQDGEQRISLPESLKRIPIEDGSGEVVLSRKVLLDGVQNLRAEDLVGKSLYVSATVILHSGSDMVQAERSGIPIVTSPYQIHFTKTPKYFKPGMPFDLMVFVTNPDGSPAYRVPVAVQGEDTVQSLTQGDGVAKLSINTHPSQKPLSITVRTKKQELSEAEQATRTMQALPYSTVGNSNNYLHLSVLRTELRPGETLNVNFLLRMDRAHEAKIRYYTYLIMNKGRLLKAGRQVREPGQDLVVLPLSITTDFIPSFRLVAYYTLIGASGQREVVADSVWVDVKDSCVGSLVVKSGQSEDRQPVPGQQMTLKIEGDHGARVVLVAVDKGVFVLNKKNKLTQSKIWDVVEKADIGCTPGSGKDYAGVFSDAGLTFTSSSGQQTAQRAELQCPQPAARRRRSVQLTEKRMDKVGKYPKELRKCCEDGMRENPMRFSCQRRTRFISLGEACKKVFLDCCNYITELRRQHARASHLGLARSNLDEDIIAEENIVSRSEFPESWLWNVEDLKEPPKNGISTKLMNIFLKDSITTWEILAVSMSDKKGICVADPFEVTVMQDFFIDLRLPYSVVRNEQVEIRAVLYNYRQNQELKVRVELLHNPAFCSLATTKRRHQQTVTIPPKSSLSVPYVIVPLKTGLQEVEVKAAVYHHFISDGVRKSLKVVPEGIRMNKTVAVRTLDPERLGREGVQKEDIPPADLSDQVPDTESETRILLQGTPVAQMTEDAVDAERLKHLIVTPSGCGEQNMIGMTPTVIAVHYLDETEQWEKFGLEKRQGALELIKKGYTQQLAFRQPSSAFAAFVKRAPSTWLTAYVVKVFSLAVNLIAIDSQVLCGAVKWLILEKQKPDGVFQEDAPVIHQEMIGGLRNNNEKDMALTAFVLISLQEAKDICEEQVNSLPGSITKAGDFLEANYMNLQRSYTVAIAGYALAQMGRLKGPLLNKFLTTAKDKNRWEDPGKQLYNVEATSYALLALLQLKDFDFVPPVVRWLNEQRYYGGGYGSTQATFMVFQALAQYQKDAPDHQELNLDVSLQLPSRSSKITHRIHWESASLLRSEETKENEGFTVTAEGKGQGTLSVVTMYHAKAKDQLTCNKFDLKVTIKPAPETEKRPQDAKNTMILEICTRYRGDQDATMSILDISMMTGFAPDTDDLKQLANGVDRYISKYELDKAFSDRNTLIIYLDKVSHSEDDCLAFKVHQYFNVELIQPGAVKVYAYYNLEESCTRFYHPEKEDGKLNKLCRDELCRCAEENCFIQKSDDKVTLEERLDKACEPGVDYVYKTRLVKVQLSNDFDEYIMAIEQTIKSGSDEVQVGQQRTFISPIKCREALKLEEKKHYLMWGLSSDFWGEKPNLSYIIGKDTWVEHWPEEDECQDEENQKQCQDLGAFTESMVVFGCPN
T4 sequence (P01024 23-1663 R102G): as the sequence (P01024 23-1663 P314L) above, with R80G, L292P counted along it
human C3, sequence (P01024 23-1663): as the sequence (P01024 23-1663 P314L) above, with L292P counted along it
T2 sequence (P01024 23-1663): as the sequence (P01024 23-1663 P314L) above, with L292P counted along it
T1 sequence (P01024 23-667 limits assumed): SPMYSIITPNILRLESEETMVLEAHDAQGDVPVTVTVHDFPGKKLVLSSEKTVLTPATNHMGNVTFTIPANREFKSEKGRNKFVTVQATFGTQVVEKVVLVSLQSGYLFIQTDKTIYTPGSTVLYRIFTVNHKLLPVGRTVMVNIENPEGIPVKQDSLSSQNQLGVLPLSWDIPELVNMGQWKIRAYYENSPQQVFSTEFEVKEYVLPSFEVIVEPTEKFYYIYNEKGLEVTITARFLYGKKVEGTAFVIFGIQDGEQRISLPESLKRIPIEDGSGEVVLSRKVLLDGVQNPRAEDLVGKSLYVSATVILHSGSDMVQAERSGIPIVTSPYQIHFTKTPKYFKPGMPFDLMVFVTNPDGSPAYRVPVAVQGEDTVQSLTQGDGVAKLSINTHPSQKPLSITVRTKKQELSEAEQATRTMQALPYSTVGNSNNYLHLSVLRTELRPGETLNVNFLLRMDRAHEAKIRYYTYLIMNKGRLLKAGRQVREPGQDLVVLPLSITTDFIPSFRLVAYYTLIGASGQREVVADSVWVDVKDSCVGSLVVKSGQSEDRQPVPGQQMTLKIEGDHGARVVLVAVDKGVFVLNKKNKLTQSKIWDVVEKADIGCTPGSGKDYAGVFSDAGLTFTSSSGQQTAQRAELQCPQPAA
T1 sequence (P01024 749-1663 limits assumed): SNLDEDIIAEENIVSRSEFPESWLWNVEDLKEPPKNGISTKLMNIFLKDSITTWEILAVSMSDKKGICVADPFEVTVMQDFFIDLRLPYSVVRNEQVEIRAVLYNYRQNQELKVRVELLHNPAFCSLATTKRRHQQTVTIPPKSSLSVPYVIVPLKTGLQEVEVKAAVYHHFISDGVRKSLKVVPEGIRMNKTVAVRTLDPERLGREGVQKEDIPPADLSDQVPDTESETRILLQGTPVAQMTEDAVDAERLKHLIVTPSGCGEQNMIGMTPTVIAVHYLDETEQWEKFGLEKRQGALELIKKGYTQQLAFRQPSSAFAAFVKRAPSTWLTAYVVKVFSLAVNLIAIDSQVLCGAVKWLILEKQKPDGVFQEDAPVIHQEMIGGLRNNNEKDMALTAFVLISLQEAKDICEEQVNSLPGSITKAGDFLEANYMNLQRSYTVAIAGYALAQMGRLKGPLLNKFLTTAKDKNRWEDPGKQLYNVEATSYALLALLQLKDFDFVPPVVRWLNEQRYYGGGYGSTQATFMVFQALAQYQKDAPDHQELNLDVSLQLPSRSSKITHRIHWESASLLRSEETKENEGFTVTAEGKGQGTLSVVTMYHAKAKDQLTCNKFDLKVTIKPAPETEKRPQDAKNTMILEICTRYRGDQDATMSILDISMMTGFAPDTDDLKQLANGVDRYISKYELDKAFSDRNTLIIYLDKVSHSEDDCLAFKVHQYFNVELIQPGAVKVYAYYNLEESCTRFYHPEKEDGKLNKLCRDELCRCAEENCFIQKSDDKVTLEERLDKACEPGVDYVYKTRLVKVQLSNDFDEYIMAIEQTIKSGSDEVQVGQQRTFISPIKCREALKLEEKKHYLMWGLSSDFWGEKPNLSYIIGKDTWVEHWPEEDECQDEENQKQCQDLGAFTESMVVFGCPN

IC50 (Classical Pathway)	IC50 (Lectin Pathway)	IC50 (Alternative Pathway)	Kd (human C3; [3])	Kd (human C3; [4])	kd C3 (human C3)	ka C3 (human C3)	Kd (human C3b; [5])	Kd (human C3b; [6])	kd C3b (human C3b)	ka C3b (human C3b)	Kd (cyno C3)	kd cyno C3 (cyno C3)	ka cyno C3 (cyno C3)	Kd [1]	kd recombinant C3 [1]	ka recombinant C3 [1]	Kd (human C3 P314L)	kd C3 SNP1 P314L (human C3 P314L)	ka C3 SNP1 P314L (human C3 P314L)	Molecule	further results
79 nM	67 nM	344 nM	0.152 nM	0.152 nM	4.7e-05 s⁻¹	310000 M⁻¹ s⁻¹	0.149 nM	0.149 nM	4.8e-05 s⁻¹	320000 M⁻¹ s⁻¹	0.267 nM	6.3e-05 s⁻¹	240000 M⁻¹ s⁻¹	0.148 nM	4.9e-05 s⁻¹	330000 M⁻¹ s⁻¹	0.14 nM	4.2e-05 s⁻¹	300000 M⁻¹ s⁻¹	Clone I: humanized anti-C3 scFv, VH SEQ ID NO: 20, VL SEQ ID NO: 21; scFv SEQ ID NO: 26 or 27 (antibody, V domains shown, VH; VL) VH: QVQLVESGGGSVQPGRSLRLSCAASGFTFSNYAMNWVRQAPGKGLEWVAVISYDGSNKYYADSVKGRFTISRDNSKNTLYLQMNSLRAEDTASYYCARAVGYHHARLDPWGCGTSVTVSS VL: QLVLTQSPSASASLGASVKLTCTLSSAHKTYTIDWYQQQPEKCPRYLMQLKSDGSYTKGSGIPDRFSGSSSGAERYLTISSLQSEDEADYYCGTEGVGGYVFGGGTKLTVLG	Kd (human C3; Table 16, read-out: C3 (Kd)): 0.16 nM; Kd (human C3b; Table 16, read-out: C3b (Kd)): 0.14 nM; Kd (human C3 R102G): 0.135 nM; kd C3 SNP2 R102G (human C3 R102G): 4.5e-05 s⁻¹; ka C3 SNP2 R102G (human C3 R102G): 330000 M⁻¹ s⁻¹; Starting charge purity (IEX-HPLC) [2]: 98.07%; Storage stability, IEX 4 weeks at 25° C. [D %] [2]: 1.1 D %; Storage stability, IEX 4 weeks at 40° C. [D %] [2]: 2.4 D %
77 nM	71 nM	360 nM	0.022 nM	0.022 nM	5.5e-06 s⁻¹	250000 M⁻¹ s⁻¹	0.05 nM	0.05 nM	1.2e-05 s⁻¹	250000 M⁻¹ s⁻¹	0.07 nM	1.5e-05 s⁻¹	210000 M⁻¹ s⁻¹	0.035 nM	1e-05 s⁻¹	300000 M⁻¹ s⁻¹	< 0.04 nM	<1.1e-05 s⁻¹	290000 M⁻¹ s⁻¹	Clone II: humanized anti-C3 scFv, VH SEQ ID NO: 22, VL SEQ ID NO: 23; scFv SEQ ID NO: 28 or 29 (antibody, V domains shown, VH; VL) VH: QVQLVESGGGSVQPGRSLRLSCAASGFTFSNYAMNWVRQAPGKGLEWVAIINVGGGTNYADSVKGRFTISRDNSKNTLYLQMNSLRAEDTASYYCARAVGYHHARLDPWGCGTSVTVSS VL: QLVLTQSPSASASLGASVKLTCTLSSAHKTYTIDWYQQQPEKCPRYLMQLKSDGSYTKGSGIPDRFSGSSSGAERYLTISSLQSEDEADYYCGTEGVGGYVFGGGTKLTVLG	Kd (human C3 R102G): 0.021 nM; kd C3 SNP2 R102G (human C3 R102G): 7e-06 s⁻¹; ka C3 SNP2 R102G (human C3 R102G): 330000 M⁻¹ s⁻¹; Starting charge purity (IEX-HPLC) [2]: 97.16%; Storage stability, IEX 4 weeks at 25° C. [D %] [2]: 0.5 D %; Storage stability, IEX 4 weeks at 40° C. [D %] [2]: 3.3 D %
